“And” between values parts separate entries of the source, which are not always exact repeats. Equal entries are not always repeated.
B1: Lysozyme C, P61626 (parent)
chain: MKALIVLGLVLLSVTVQGKVFERCELARTLKRLGMDGYRGISLANWMCLAKWESGYNTRATNYNAGDRSTDYGIFQINSRYWCNDGKTPGAVNACHLSCSALLQDNIADAVACAKRVVRDPQGIRAWVAWRNRCQNRDVRQYVQGCGV

Variants of: B1
Settings: Homo sapiens; pH 2.7; 64.9 °C; Thermal; DSC; glycine 0.05 M; reversible: yes; structure 1LZ1; whole UniProt chain shown

Variant	ddG of mutation (higher = less stable) [kcal/mol]
I77G	3.82
I77F	0.81
I77Y	3.78
I74F	4.09
I74T	3.63
I74L	0.1
I74M	1.77
I74V	1.2

Same assay, conditions: Homo sapiens; pH 2.7; Thermal; DSC; glycine 0.05 M; reversible: yes; structure 1LZ1; whole UniProt chain shown

Variant	Tm	change of melting temperature, mutant - wild type (higher = more stable) [°C]	heat capacity change of unfolding	unfolding enthalpy (calorimetric)	unfolding enthalpy (van 't Hoff)
I77G	52.2 °C	-12.7	1.24 kcal/mol/K	106 kcal/mol	109 kcal/mol
I77F	64.9 °C	–	–	–	–
I77Y	–	-13.8	1.34 kcal/mol/K	97.8 kcal/mol	105 kcal/mol
I74F	–	-15	1.82 kcal/mol/K	102 kcal/mol	106 kcal/mol
I74T	–	-12.5	1.08 kcal/mol/K	102 kcal/mol	108 kcal/mol
I74L	64.6 °C and 64.9 °C	-0.3	1.41 kcal/mol/K	107 kcal/mol	119 kcal/mol
I74M	–	-5.8	1.63 kcal/mol/K and 1.53 kcal/mol/K	97.3 kcal/mol and 106 kcal/mol	107 kcal/mol and 115 kcal/mol
I74V	61.3 °C and 64.9 °C	-3.6	1.34 kcal/mol/K	114 kcal/mol	117 kcal/mol
I74G	62.2 °C	-2.7	–	–	–
I74A	64.9 °C	–	–	–	–

Same assay, conditions: Homo sapiens; pH 2.54; Thermal; DSC; glycine 0.05 M; reversible: yes; structure 1LZ1; whole UniProt chain shown

Variant	Tm [°C]	heat capacity change of unfolding [kcal/mol/K]	unfolding enthalpy (calorimetric) [kcal/mol]	unfolding enthalpy (van 't Hoff) [kcal/mol]
I77F	59.8	1.41	99.9	108
I74M	56.3	1.39	92.5	103

Same assay, conditions: Homo sapiens; pH 2.73; Thermal; DSC; glycine 0.05 M; reversible: yes; structure 1LZ1; whole UniProt chain shown

Variant	Tm [°C]	heat capacity change of unfolding [kcal/mol/K]	unfolding enthalpy (calorimetric) [kcal/mol]	unfolding enthalpy (van 't Hoff) [kcal/mol]
I77F	62.8	1.58	104	112

Same assay, conditions: Homo sapiens; pH 2.9; Thermal; DSC; glycine 0.05 M; reversible: yes; structure 1LZ1; whole UniProt chain shown

Variant	Tm [°C]	heat capacity change of unfolding [kcal/mol/K]	unfolding enthalpy (calorimetric) [kcal/mol]	unfolding enthalpy (van 't Hoff) [kcal/mol]
I77F	65.4	1.2	108	116

Same assay, conditions: Homo sapiens; pH 3.05; Thermal; DSC; glycine 0.05 M; reversible: yes; structure 1LZ1; whole UniProt chain shown

Variant	Tm [°C]	heat capacity change of unfolding [kcal/mol/K]	unfolding enthalpy (calorimetric) [kcal/mol]	unfolding enthalpy (van 't Hoff) [kcal/mol]
I77F	68	1.29	111	120

Same assay, conditions: Homo sapiens; pH 3.15; Thermal; DSC; glycine 0.05 M; reversible: yes; structure 1LZ1; whole UniProt chain shown

Variant	Tm [°C]	heat capacity change of unfolding [kcal/mol/K]	unfolding enthalpy (calorimetric) [kcal/mol]	unfolding enthalpy (van 't Hoff) [kcal/mol]
I77F	69.8	1.36	114	123

Same assay, conditions: Homo sapiens; pH 2.71; Thermal; DSC; glycine 0.05 M; reversible: yes; structure 1LZ1; whole UniProt chain shown

Variant	Tm [°C]	heat capacity change of unfolding [kcal/mol/K]	unfolding enthalpy (calorimetric) [kcal/mol]	unfolding enthalpy (van 't Hoff) [kcal/mol]
I77Y	51.4	1.55	79.3	84.4

Same assay, conditions: Homo sapiens; pH 3.18; Thermal; DSC; glycine 0.05 M; reversible: yes; structure 1LZ1; whole UniProt chain shown

Variant	Tm [°C]	heat capacity change of unfolding [kcal/mol/K]	unfolding enthalpy (calorimetric) [kcal/mol]	unfolding enthalpy (van 't Hoff) [kcal/mol]
I77Y	59.5	1.27	90.6	97

Same assay, conditions: Homo sapiens; pH 2.75; Thermal; DSC; glycine 0.05 M; reversible: yes; structure 1LZ1; whole UniProt chain shown

Variant	Tm [°C]	heat capacity change of unfolding [kcal/mol/K]	unfolding enthalpy (calorimetric) [kcal/mol]	unfolding enthalpy (van 't Hoff) [kcal/mol]
I74F	50.8	1.89	76	79.3

Same assay, conditions: Homo sapiens; pH 3.06; Thermal; DSC; glycine 0.05 M; reversible: yes; structure 1LZ1; whole UniProt chain shown

Variant	Tm [°C]	heat capacity change of unfolding [kcal/mol/K]	unfolding enthalpy (calorimetric) [kcal/mol]	unfolding enthalpy (van 't Hoff) [kcal/mol]
I74F	56.3	1.77	86	89.6

Same assay, conditions: Homo sapiens; pH 2.48; Thermal; DSC; glycine 0.05 M; reversible: yes; structure 1LZ1; whole UniProt chain shown

Variant	Tm [°C]	heat capacity change of unfolding [kcal/mol/K]	unfolding enthalpy (calorimetric) [kcal/mol]	unfolding enthalpy (van 't Hoff) [kcal/mol]
I74L	61.2	1.41	103	113

Same assay, conditions: Homo sapiens; pH 2.65; Thermal; DSC; glycine 0.05 M; reversible: yes; structure 1LZ1; whole UniProt chain shown

Variant	Tm [°C]	heat capacity change of unfolding [kcal/mol/K]	unfolding enthalpy (calorimetric) [kcal/mol]	unfolding enthalpy (van 't Hoff) [kcal/mol]
I74L	64	1.55	105	119

Same assay, conditions: Homo sapiens; pH 2.96; Thermal; DSC; glycine 0.05 M; reversible: yes; structure 1LZ1; whole UniProt chain shown

Variant	Tm [°C]	heat capacity change of unfolding [kcal/mol/K]	unfolding enthalpy (calorimetric) [kcal/mol]	unfolding enthalpy (van 't Hoff) [kcal/mol]
I74L	68.7	1.27	112	125

Same assay, conditions: Homo sapiens; pH 2.83; Thermal; DSC; glycine 0.05 M; reversible: yes; structure 1LZ1; whole UniProt chain shown

Variant	Tm [°C]	heat capacity change of unfolding [kcal/mol/K]	unfolding enthalpy (calorimetric) [kcal/mol]	unfolding enthalpy (van 't Hoff) [kcal/mol]
I74M	61.3	1.72	101	110

Same assay, conditions: Homo sapiens; pH 3.02; Thermal; DSC; glycine 0.05 M; reversible: yes; structure 1LZ1; whole UniProt chain shown

Variant	Tm [°C]	heat capacity change of unfolding [kcal/mol/K]	unfolding enthalpy (calorimetric) [kcal/mol]	unfolding enthalpy (van 't Hoff) [kcal/mol]
I74M	64.2	1.43	105	113

Same assay, conditions: Homo sapiens; pH 3.11; Thermal; DSC; glycine 0.05 M; reversible: yes; structure 1LZ1; whole UniProt chain shown

Variant	Tm [°C]	heat capacity change of unfolding [kcal/mol/K]	unfolding enthalpy (calorimetric) [kcal/mol]	unfolding enthalpy (van 't Hoff) [kcal/mol]
I74M	65.9	1.53	107	116
